The values below come from patent US20200384079A1, “Compositions of Fibroblast Growth Factor LIgands and Methods of Treating Patients Undergoing Ischemia-Reperfusion Therapy” (University of Cincinnati, priority 2017, published 2020).

Entries after “also recorded” stand apart in the source; their conditions may differ.

The subject of data set [1] is in vivo rat model of myocardial infarction. The experiment in a line: In vivo rat ischemia-reperfusion model, infarct size (TTC). Details: species or system Sprague Dawley rats. The following applies: rat, given at reperfusion, no heparin co-therapy. The procedure: CVR-2016-799R1 signaling and the other two sets were to evaluate the pharmacokinetic properties of native FGF1 and modified FGF1 (FGF1^ΔHBS). The first set of experiments was for the ischemia/reperfusion study in which animals were divided into six groups as follows: (1) saline group: saline treatment given intravenously for 10 minutes immediately upon reperfusion, (2) heparin group: heparin, 60 U/kg intravenous (i.v.) bolus, given immediately at reperfusion+12 U/kg/hr i.v. infusion for 120 minutes of reperfusion, (3) FGF1 group: FGF1, 10 μg/kg i.v. infusion, given for 10 minutes immediately at reperfusion, (4) FGF1+heparin: heparin, 60 U/kg bolus, given immediately upon reperfusion followed by FGF1, 10 μg/kg i.v. infusion, given for 10 minutes and 12 U/kg/hr i.v. infusion given for 110 minutes of reperfusion, (5) modified FGF1 (FGF1^ΔHBS) group: FGF1^ΔHBS, 10 μg/kg i.v. infusion, given for 10 minutes, or (6) FGF1^ΔHBS+heparin: heparin, 60 U/kg bolus, given immediately at reperfusion followed by FGF1^ΔHBS, 10 μg/kg i.v. infusion, given for 10 minutes and 12 U/kg/hr i.v. infusion for 110 minutes of reperfusion. All rats were subjected to 30 minutes of regional ischemia and 120 minutes of reperfusion. Drugs were administered at the onset of reperfusion via the jugular vein (FIG. 2A). […] A total of ninety-six rats was completed for the I/R study. Sample size for each group ranged from 9-16 depending on the power analysis. A total of thirty-five rats were excluded from the study based on the lack of cyanosis of the heart or typical elevation of the ST segment in the electrocardiogram during ischemia, and death from malignant arrhythmia. For the biodistribution or FGF1 signaling study, rats were randomly divided into six groups as described above (FIG. 2B). Following drug treatment (immediately following 15 minutes of treatment or 105 minutes post-treatment at the point which mimics the length of time of reperfusion), solid organs and blood (see sections “Tissue collection for exogenous FGF1 biodistribution” and “Cardiac preparation to detect the activation of FGF1 downstream molecules”) were collected. A total of 33 rats were used for biodistribution and FGF1 signaling studies, and 3 rats were excluded due to anesthetic overdose. Also, a total of 8 plasma samples were excluded because of hemolysis. For elimination half-life of native FGF1 and FGF1^ΔHBS, 12 rats were randomly divided into two groups and treated intraperitoneally with either FGF1 form as described in the section “Pharmacokinetic evaluation of exogenous FGF1 or FGF1^ΔHBS ”.
The in vivo I/R model was established by ligating and loosening the left anterior CVR-2016-799R1 descending artery (LAD) previously described by our laboratory. In brief, rats were anesthetized with thiobutabarbital sodium salt hydrate, Inactin® hydrate (100 mg/kg, i.p., Sigma-Aldrich), and intubated and artificially ventilated via a rodent respirator (respiratory rate: 75 strokes/minute; tidal volume: 3 mL; Model 683, Harvard, USA). The heart was exposed through a left thoracotomy and pericardiotomy, and a 6-0 silk suture was placed around the left anterior descending (LAD) coronary artery. After equilibration for 15 minutes, hearts were subjected to 30 minutes of ischemia by ligating the LAD via a snare occluder and reperfusion occurred for 120 minute via loosening the snare occluder. The appearance of cyanosis of the heart and significant ST-segment elevation in the electrocardiogram were used to verify successful ligation.
At the end of the ischemia-reperfusion injury study, the LAD was re-occluded with the suture used previously for the establishment of ischemia. 5% Evans blue dye solution was given via the jugular vein to define the area-at-risk (AAR). Then, the heart was arrested in diastole with 1 mL of 15% potassium chloride, and the animal was euthanized with an anesthetic overdose followed by a bilateral pneumothorax for removal of the heart. […]

Another data set has as its system FGF receptors. The following applies: published data; cited from earlier work.
For another data set, the system named is trypsin. Description: Susceptibility to proteolytic degradation by trypsin (fluorescence emission). In kind it is in vitro ADME. The procedure: Ligand bioavailability (i.e., pharmacokinetic mechanism) can be a significant pharmacological limitation for therapeutic applicability. […] Susceptibility to protease action of FGF1^ΔTS was determined by monitoring changes in fluorescence emission during degradation by trypsin, FGF1^ΔTS (20-fold increase) and FGF2 (7-fold increase) were more resistant to proteolytic degradation than the native FGF1. It remained to be elucidated as to whether these pharmacokinetic mechanisms I.e., bioavailability and/or half-life) were enhanced in vivo as well. Therefore, detection of the bioavailability and half-life of native and thermally stable mutated ligands (FGF^ΔTS) are carried out as follows: […]

B1: FGF1^ΔTS: thermally stable mutant of FGF1 containing Q55P, S62I, and H108G FGF1-stabilizing mutations (protein, UniProt P05230 16-155, looked up, variant Q55P S62I H108G)
Fibroblast growth factor 1: FNLPPGNYKKPKLLYCSNGGHFLRILPDGTVDGTRDRSDPHIQLQLIAESVGEVYIKSTETGQYLAMDTDGLLYGSQTPNEECLFLERLEENGYNTYISKKHAEKNWFVGLKKNGSCKRGPRTHYGQKAILFLPLPVSSD
With B1, in data set [1], the “effect on infarct size (in words)” value was “marked reduction in infarct size compared to native FGF1 at the same dose; also recorded: more efficacious in reducing infarct size compared to the same dose of native FGF1”. In the data set with FGF receptors, the “activation of FGF receptors (ERK activation, cell proliferation) (in words)” value is “greater than the native FGF1”. The “increase in proteolytic resistance compared to native FGF1” value in the data set on trypsin worked out at 20 fold.
